Results as given in patent US20210277146A1 (BEIJING DONGFANG BIOTECH, published 2021).

B1: DFSK9-13 complete antibody (antibody, V domains shown)
VH: QVQLVQSGAEVKKPGASVKVSCKASGYSLTSYGISWVRQAPGQGLEWMGWVSFYQGNTNYAQKLQGRGTMTTDPSTSTAYMELRSLRSDDTAVYYCARGYGMTVWGQGTTVTVSS
VL: DIQMTQSPSSLSASVGDRVTITCRASQDVDSWLTWYQQKPGKAPKLLIYGASNLASGVPSRFSGSGSGTDFTLTISSLQPEDFATYYCQQDSKIPLTFGQGTKVEIK
B2: DFSK9-20 complete antibody (antibody, V domains shown)
VH: QVQLVQSGAEVKKPGASVKVSCKASGYSLTSYGISWVRQAPGQGLEWMGWVSFYNGNSNYAQKLQGRGTMTTDPSTSTAYMELRSLRSDDTAVYYCARGFGMDRWGQGTTVTVSS
VL: DIQMTQSPSSLSASVGDRVTITCRASQNINNWLNWYQQKPGKAPKLLIYGASTRPTGVPSRFSGSGSGTDFTLTISSLQPEDFATYYCQQWDDTPNTFGQGTKVEIK
B3: DFSK9-14 complete antibody (antibody, V domains shown)
VH: QVQLVQSGAEVKKPGASVKVSCKASGYSLTSYGISWVRQAPGQGLEWMGWVSFYNGQTNYAQKLQGRGTMTTDPSTSTAYMELRSLRSDDTAVYYCARGYGMSIWGQGTTVTVSS
VL: DIQMTQSPSSLSASVGDRVTITCRASQNINSWLNWYQQKPGKAPKLLIYGASSRQSGVPSRFSGSGSGTDFTLTISSLQPEDFATYYCQQWFDVPTTFGQGTKVEIK
B4: DFSK9-15 complete antibody (antibody, V domains shown)
VH: QVQLVQSGAEVKKPGASVKVSCKASGYTVTSYGISWVRQAPGQGLEWMGWVSFYNGQTNYAQKLQGRGTMTTDPSTSTAYMELRSLRSDDTAVYYCARGYSLDVWGQGTTVTVSS
VL: DIQMTQSPSSLSASVGDRVTITCRASQNINNWLNWYQQKPGKAPKLLIYGASTRPTGVPSRFSGSGSGTDFTLTISSLQPEDFATYYCQQWDDTPNTFGQGTKVEIK
B5: DFSK9-16 complete antibody (antibody, V domains shown)
VH: QVQLVQSGAEVKKPGASVKVSCKASGYTVTSYGISWVRQAPGQGLEWMGWVSFYQGNTNYAQKLQGRGTMTTDPSTSTAYMELRSLRSDDTAVYYCARGFGMDRWGQGTTVTVSS
VL: DIQMTQSPSSLSASVGDRVTITCRASQNINSWLNWYQQKPGKAPKLLIYGASSRQSGVPSRFSGSGSGTDFTLTISSLQPEDFATYYCQQWFDVPTTFGQGTKVEIK
B6: DFSK9-17 complete antibody (antibody, V domains shown)
VH: QVQLVQSGAEVKKPGASVKVSCKASGYTVTSYGISWVRQAPGQGLEWMGWVSFYNGNSNYAQKLQGRGTMTTDPSTSTAYMELRSLRSDDTAVYYCARGYSLDVWGQGTTVTVSS
VL: DIQMTQSPSSLSASVGDRVTITCRASQNINNWLNWYQQKPGKAPKLLIYGASTRPTGVPSRFSGSGSGTDFTLTISSLQPEDFATYYCQQWDDTPNTFGQGTKVEIK
B7: DFSK9-19 complete antibody (antibody, V domains shown)
VH: QVQLVQSGAEVKKPGASVKVSCKASGYSLTSYGISWVRQAPGQGLEWMGWVTFYNGNTNYAQKLQGRGTMTTDPSTSTAYMELRSLRSDDTAVYYCARGFGLSVWGQGTTVTVSS
VL: DIQMTQSPSSLSASVGDRVTITCRASQNVNNWLNWYQQKPGKAPKLLIYAASTRETGVPSRFSGSGSGTDFTLTISSLQPEDFATYYCQQDNDMPLTFGQGTKVEIK
B8: DFSK9-21 complete antibody (antibody, V domains shown)
VH: QVQLVQSGAEVKKPGASVKVSCKASGYSLTSYGISWVRQAPGQGLEWMGWVSFYNGQTNYAQKLQGRGTMTTDPSTSTAYMELRSLRSDDTAVYYCARGFGMDRWGQGTTVTVSS
VL: DIQMTQSPSSLSASVGDRVTITCRASQNINNWLNWYQQKPGKAPKLLIYGASTRPTGVPSRFSGSGSGTDFTLTISSLQPEDFATYYCQQWDDTPNTFGQGTKVEIK
notes: also called DF5K9-21
B9: DFSK9-18 complete antibody (antibody, V domains shown)
VH: QVQLVQSGAEVKKPGASVKVSCKASGYTVTSYGISWVRQAPGQGLEWMGWVSFYNGNSNYAQKLQGRGTMTTDPSTSTAYMELRSLRSDDTAVYYCARGYSLDVWGQGTTVTVSS
VL: DIQMTQSPSSLSASVGDRVTITCRASQNINSWLNWYQQKPGKAPKLLIYGASSRQSGVPSRFSGSGSGTDFTLTISSLQPEDFATYYCQQWFDVPTTFGQGTKVEIK
B10: DFSK9-1 complete antibody (antibody, V domains shown)
VH: QVQLVQSGAEVKRPGASVKVSCKASGGTFTNNAISWVRQAPGQGLEWMGRIIPMFGMANYAQKLQGRGTMTTDPSTSTAYMELRSLRSDDTAVYYCAREGIPMIWGQGTTVTVSS
VL: DIQMTQSPSSLSASVGDRVTITCRASQSIDNRLTWYQQKPGKAPKLLIYDASSRQSGVPSRFSGSGSGTDFTLTISSLQPEDFATYYCQQPENDPTTFGQGTKVEIK
B11: DFSK9-12 complete antibody (antibody, V domains shown)
VH: QVQLVQSGAEVKKPGASVKVSCKASGYTVTSYGISWVRQAPGQGLEWMGWLSFYNGNTNYAQKLQGRGTMTTDPSTSTAYMELRSLRSDDTAVYYCARGYSLDVWGQGTTVTVSS
VL: DIQMTQSPSSLSASVGDRVTITCRASQSVRNWLDWYQQKPGKAPKLLIYGASTLESGVPSRFSGSGSGTDFTLTISSLQPEDFATYYCQQDNDIPLTFGQGTKVEIK

Tests used:
PCSK9 [1] = molecular target: T1, PCSK9 (UniProt Q8NBP7 31-692, limits assumed); assay: cell-based or functional assay
T1 sequence (Q8NBP7 31-692 limits assumed): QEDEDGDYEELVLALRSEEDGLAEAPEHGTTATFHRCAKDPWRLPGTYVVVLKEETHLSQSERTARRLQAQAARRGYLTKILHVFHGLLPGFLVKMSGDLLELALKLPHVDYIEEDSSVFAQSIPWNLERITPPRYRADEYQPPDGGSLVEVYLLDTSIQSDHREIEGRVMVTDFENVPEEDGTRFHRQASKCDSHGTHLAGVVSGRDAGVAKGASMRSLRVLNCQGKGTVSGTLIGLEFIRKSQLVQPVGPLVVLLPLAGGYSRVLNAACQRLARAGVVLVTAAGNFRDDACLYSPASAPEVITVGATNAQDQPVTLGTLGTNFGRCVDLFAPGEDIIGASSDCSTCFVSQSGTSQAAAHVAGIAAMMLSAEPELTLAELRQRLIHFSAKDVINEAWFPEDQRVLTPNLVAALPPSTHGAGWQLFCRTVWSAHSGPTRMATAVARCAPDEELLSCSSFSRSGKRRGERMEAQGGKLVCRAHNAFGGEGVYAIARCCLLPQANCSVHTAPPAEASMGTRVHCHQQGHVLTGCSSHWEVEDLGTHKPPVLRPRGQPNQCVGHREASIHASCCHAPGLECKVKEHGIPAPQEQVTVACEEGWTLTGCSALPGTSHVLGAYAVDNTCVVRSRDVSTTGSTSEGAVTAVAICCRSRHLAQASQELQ

PCSK9 [2] = molecular target: T1, PCSK9; assay: SPR BIAcore X100, antibody captured by goat anti-human IgG on CM5, PCSK9 as analyte
PCSK9-His [3] = molecular target: T2, PCSK9-His (UniProt Q8NBP7 31-692); assay: competition ELISA, LDLR-Fc coated, PCSK9-His 2 ug/ml, antibody titrated, anti-His-HRP
T2 construct: also called antigen PCSK9-His; Proprotein Convertase Subtilisin/Kexin Type 9; not shown: His tag
T2 sequence (Q8NBP7 31-692 limits assumed): as above
Procedure: Coating LDLR-Fc (100 ng/well/100 μl) by 0.01M PBS buffer at pH 7.2 overnight at 4° C., washing three times with PBST, further adding PBST-4% milk, and blocking for one hour at 37° C.; further adding 2 μg/ml PCSK9-His (100 μlwell) diluted by PBST-4% milk, and incubating to one hour at 37° C.; adding complete antibodies DFSK9-1, DFSK9-12, DFSK9-13, DFSK9-14, DFSK9-15, DFSK9-16, DFSK9-17, DFSK9-18, DFSK9-19, DFSK9-20 and DFSK9-21 of different dilution degrees; the highest concentration of the 11 complete antibodies is 100 μg/ml, diluting at a five-time gradient, diluting for eight gradients for each complete antibody, and incubating for 2 hours at 37° C.; washing 5 times with PBST, further adding a mouse-anti His IgG-HRP secondary antibody diluted by PBST-4% milk, and incubating for 1 hour at 37° C.; developing by using the TMB developing kit (100 μl/well), developing for 10 minutes at the room temperature, and terminating developing with 2M H₂SO₄ (50 μl/well); reading numbers by using the microplate reader at 450 nm and 630 nm; analyzing data and drawing pictures by using software GraphPad Prism 5 Demo, and results are shown in FIG. 9 and table 3.

PCSK9-His [4] = molecular target: T2, PCSK9-His; assay: ELISA, PCSK9-His coated, complete antibody titrated, anti-human IgG-HRP
Procedure: Coating PCSK9-His (300 ng/well/100 μl) by 0.01M PBS buffer at pH 7.2 overnight at 4° C., washing three times with PBST (1‰ Tween 20) of 300 μl/well, further adding PBST-4% milk, and blocking for one hour at 37° C.; adding complete antibodies DFSK9-1, DFSK9-12, DFSK9-13, DFSK9-14, DFSK9-15, DFSK9-16, DFSK9-17, DFSK9-18, DFSK9-19, DFSK9-20 and DFSK9-21 of different dilution degrees; the highest concentration of the 11 complete antibodies is 50 μg/ml, diluting at a five-time gradient, diluting for eight gradients for each complete antibody, and incubating for one hour at 37° C.; washing 5 times with PBST of 300 μl/well, further adding a goat-anti-human IgG-HRP secondary antibody diluted by PBST-4% milk at a ratio of 1:5000, and incubating for one hour at 37° C.; washing 5 times with PBST of 300 μl/well, developing by using a Tetramethylbenzidine (TMB) developing kit (100 μl/well), developing for 10 minutes at a room temperature, and terminating developing with 2M H₂SO₄ (50 μl/well); reading numbers by using a microplate reader at wavelengths of 450 nm and 630 nm; analyzing data and drawing pictures by using software GraphPad Prism 5Demo, and results are shown in FIG. 8 and table 2.

Binder | EC50 value of bioactivity testing (BODIPY-LDL uptake in HepG2 cells, RFU) (PCSK9 [1]) | Kd (PCSK9 [2]) | koff (PCSK9 [2]) | kon (PCSK9 [2]) | IC50 (PCSK9-His [3]) | EC50 (PCSK9-His [4])
B1 | 29.6 nM | 0.052 nM | 2.99e-05 s⁻¹ | 575000 M⁻¹ s⁻¹ | 0.383 µg/mL | 0.0835 µg/mL
B2 | 17.9 nM | 0.0157 nM | 1.45e-05 s⁻¹ | 925000 M⁻¹ s⁻¹ | 0.216 µg/mL | 0.0337 µg/mL
B3 | 16.6 nM | 0.0293 nM | 7.9e-05 s⁻¹ | 2.7e+06 M⁻¹ s⁻¹ | 0.146 µg/mL | 0.0422 µg/mL
B4 | 15.3 nM | 0.00875 nM | 4.75e-06 s⁻¹ | 542000 M⁻¹ s⁻¹ | 0.114 µg/mL | 0.0397 µg/mL
B5 | 23.8 nM | 0.0461 nM | 5.61e-05 s⁻¹ | 1.22e+06 M⁻¹ s⁻¹ | 0.282 µg/mL | 0.0562 µg/mL
B6 | 18.5 nM | 0.00156 nM | 1.84e-06 s⁻¹ | 1.18e+06 M⁻¹ s⁻¹ | 0.089 µg/mL | 0.0314 µg/mL
B7 | – | 0.186 nM | 7.34e-05 s⁻¹ | 395000 M⁻¹ s⁻¹ | 0.533 µg/mL | 0.0832 µg/mL
B8 | 20.3 nM | 0.00716 nM | 4.24e-06 s⁻¹ | 592000 M⁻¹ s⁻¹ | 0.161 µg/mL | 0.0282 µg/mL
B9 | 23.9 nM | 0.00389 nM | 1.99e-06 s⁻¹ | 512000 M⁻¹ s⁻¹ | 0.107 µg/mL | 0.0339 µg/mL
B10 | – | 0.175 nM | 9.19e-05 s⁻¹ | 518000 M⁻¹ s⁻¹ | 0.847 µg/mL | 0.171 µg/mL
B11 | – | 0.119 nM | 4.98e-05 s⁻¹ | 418000 M⁻¹ s⁻¹ | 0.266 µg/mL | 0.0646 µg/mL
